Test results taken from PMC12398788, “Molecular basis of the autoregulatory mechanism of motor neuron-related splicing factor 30”.
Numbering of substitutions follows the chain as printed.

How the values were obtained:
SPF30 ΔC1 = target: T1, SPF30 ΔC1 (human, UniProt O75940 1-164); assay: EMSA; 200 or 400 ng protein; EMSA: 40 mM Tris-HCl pH 7.4, 30 mM KCl, 1 mM MgCl2, 0.01% IGEPAL CA-630, 25 °C 30 min, 20 fmol RNA in 12 µl; UV cross-linking: 50 mM Tris-HCl pH 7.4, 150 mM NaCl, 0.5% IGEPAL CA-630, 4 °C 4 h; settings: protein: recombinant; tags: N-terminal 6xHis; label: biotin; stem-loop predicted at intron 3/exon 4a/exon 4
T1 sequence: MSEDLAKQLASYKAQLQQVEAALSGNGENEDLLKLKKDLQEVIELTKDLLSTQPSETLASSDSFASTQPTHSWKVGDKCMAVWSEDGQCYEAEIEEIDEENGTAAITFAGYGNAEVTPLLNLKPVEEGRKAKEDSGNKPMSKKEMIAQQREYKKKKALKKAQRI

6xHis-SPF30 WT = target: T2, 6xHis-SPF30 WT (human, UniProt O75940 1-238); assay: as above; settings: protein: recombinant; tags: N-terminal 6xHis (pCold I); C-terminal FLAG from primer KI-125; label: biotin; stem-loop predicted at intron 3/exon 4a/exon 4
T2 sequence: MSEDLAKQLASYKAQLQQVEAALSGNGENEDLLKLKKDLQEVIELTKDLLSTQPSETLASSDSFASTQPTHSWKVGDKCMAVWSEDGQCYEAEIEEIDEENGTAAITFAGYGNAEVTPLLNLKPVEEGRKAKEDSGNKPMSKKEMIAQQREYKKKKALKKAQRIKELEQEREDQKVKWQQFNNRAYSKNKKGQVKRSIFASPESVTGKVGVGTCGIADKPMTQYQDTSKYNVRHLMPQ

SPF30 ΔC5 = target: T3, SPF30 ΔC5 (human, UniProt O75940 1-217); assay: as above; settings: protein: recombinant; tags: N-terminal 6xHis; label: biotin; stem-loop predicted at intron 3/exon 4a/exon 4
T3 sequence: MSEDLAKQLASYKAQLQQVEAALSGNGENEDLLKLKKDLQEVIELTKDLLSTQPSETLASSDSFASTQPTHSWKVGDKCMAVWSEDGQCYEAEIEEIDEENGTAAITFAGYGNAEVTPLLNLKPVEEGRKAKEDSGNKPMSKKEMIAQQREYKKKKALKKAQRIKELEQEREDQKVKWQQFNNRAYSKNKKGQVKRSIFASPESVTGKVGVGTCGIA

SPF30 FSV3A = target: T4, SPF30 FSV3A (human, UniProt O75940 1-238, F199A;S201A;V209A); assay: EMSA; 200 or 400 ng protein; distinct mobility from WT; EMSA: 40 mM Tris-HCl pH 7.4, 30 mM KCl, 1 mM MgCl2, 0.01% IGEPAL CA-630, 25 °C 30 min, 20 fmol RNA in 12 µl; UV cross-linking: 50 mM Tris-HCl pH 7.4, 150 mM NaCl, 0.5% IGEPAL CA-630, 4 °C 4 h; settings: protein: recombinant; tags: N-terminal 6xHis; label: biotin; stem-loop predicted at intron 3/exon 4a/exon 4
T4 sequence: T2 sequence with F199A, S201A, V209A

SPF30 197-217 peptide = target: T5, SPF30 197-217 peptide (human, UniProt O75940 197-217); assay: EMSA; EMSA: 40 mM Tris-HCl pH 7.4, 30 mM KCl, 1 mM MgCl2, 0.01% IGEPAL CA-630, 25 °C 30 min, 20 fmol RNA in 12 µl; UV cross-linking: 50 mM Tris-HCl pH 7.4, 150 mM NaCl, 0.5% IGEPAL CA-630, 4 °C 4 h; settings: label: biotin; stem-loop predicted at intron 3/exon 4a/exon 4
T5 chain: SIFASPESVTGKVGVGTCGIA

CUGCUUACAGCCAUGAUAUCUUUACAGGUGUUAUGAAGCGG (ssRNA) [BT-RNA WT]
binding result (SPF30 ΔC1): no binding | binding result (6xHis-SPF30 WT): binds | binding result (SPF30 ΔC5): binds | binding result (SPF30 FSV3A): binds | binding result (SPF30 197-217 peptide): no binding
